experiment: soluble on expression in E. coli; label from the status in PepcDB or PDB records

Sequence	soluble on expression in E. coli
MGHHHHHHSHMAAPLGGMFSGQPPGPPQAPPGLPGQASLLQAAPGAPRPSSSTLVDELESSFEACFASLVSQDYVNGTDQEEIRTGVDQCIQKFLDIARQTECFFLQKRLQLSVQKPEQVIKEDVSELRNELQRKDALVQKHLTKLRHWQQVLEDINVQHKKPADIPQGSLAYLGAGICQHPCTSEANVSKGQRQLAYEWADA	not soluble
MGHHHHHHSHMACAEFSFHVPSLEELAGVMQKGLKDNFADVQVSVVDCPDLTKEPFTFPVKGICGKTRIAEVGGVPYLLPLVNQKKVYDLNKIAKEIKLPGAFILGAGAGPFQTLGFNSEFMPVIQTESEHKPPVNGSYFAHVNPADGGCLLEKYSEKCHDFQCALLANLFASEGQPGKVIEVKAKRRTGPLNFVTCMRETLEKHYGNKPIGMGGTFIIQKGKVKSHIMPAEFSSCPLNSDEEVNKWLHFYEMKAPLVCLPVFVSRDPGFDLRLEHTHFFSRHGEGGHYHYDTTPDIVEYLGYFLPAEFLYRIDQPKETHSIGRD	soluble
MGHHHHHHSHMACLNPVPKLYRSVIEDVIEGVRNLFAEEGIEEQVLKDLKQLWETKVLQSKATEDFFRNSIQSPLFTLQLPHSLHQTLQSSTASLVIPAGRTLPSFTTAELGTSNSSANFTFPGYPIHVPAGVTLQTVSGHLYKVNVPIMVTETSGRAGILQHPIQQVFQQLGQPSVIQTSVPQLNPWSLQATTEKSQRIETVLQQPAILPSGPVDRKHLENATSDILVSPGNEHKIVPEALLCHQESSHYISLPGVVFSPQVSQTNSD	not soluble
MGHHHHHHSHMADQKKVSEAAKEREIKISSSDNEIFLVPRNVIRLSNTINTLLMDLGLDDEEGTNAEPIPVQNVTASILKKVISWCNHHHSDPISTEDSDNREKRTDDIGSWDVEFLKVDQGTLFELILAANYLDIKGLLDVTCKTVANMIKGKSPEEIRRTFNIKNDFTPEEEEQIRKENAWCED	soluble
MGHHHHHHSHMAFMVKSMVGGQLKNLTGSLGGGEDKGDGDKSAAEAQGMSREEYEEYQKQLVEEKMERDAQFTQRKAERATLRSHFRDKYRLPKNETDESQIQLAGGDVELPRELAKMIEEDTEEEEDKASVLGQLASLPGLDLSSLKDKAQTTLGDLKQSAEKCHIM	not soluble
MGHHHHHHSHMAGAGVPGEATGRGAGGRRRKRPLQRGKPPYSYIALIAMAIAHAPERRLTLGGIYKFITERFPFYRDNPKKWQNSIRHNLTLNDCFLKIPREAGRPGKGNYWALDPNAEDMFESGSFLRRRKRFKRSDLST	soluble
MGHHHHHHSHMAGEKAQKKGKEKWKEKTWYTVESPPYLGSKEVTVALGEDPESMVNRIVEVPISDLTGNFKKSNEKALFRITGCEGTKCKTIFIGHYIGDDYIRRLVRRRKERIDIIEDVKTSDGSIITVKIVVVSDGKLTNTKKSEIRKALTSFIVSKGSQLSYADFVRYLIGDDSYNDMVEATKNIYPLRKIEIRKSELVSLSGMQEPQKNEPAPGGEAIAQN	not soluble
MGHHHHHHSHMAIVEHLYQQGMLSVAEELCQESTLNVDLDFKQPFLELNRILEALHEQDLGPALEWAVSHRQRLLELNSSLEFKLHRLHFIRLLAGGPAKQLEALSYARHFQPFARLHQREIQVMMGSLVYLRLGLEKSPYCHLLDSSHWAEICETFTRDACSLLGLSVESPLSVSFASGCVALPVLMNIKAVIEQRQCTGVWNHKDELPIEIELGMKCWYHSVFACPILRQQTSDSNPPIKLICGHVISRDALNKLINGGKLKCPYCPMEQNPADGKRIIF	not soluble
MGHHHHHHSHMANPKLLGLELSEAEAIGADSARFEELLLQASKELQQAQTTRPESTQIQPQPGFCIKTNSSEGKVFINICHSPSIPPPADVTEEELLQMLEEDQAGFRIPMSLGEPHAELDAKGQGCTAYDVAVNSDFYRRMQNSDFLRELVITIAREGLEDKYNLQLNPEWRMMKNRPFMGSISQQNIRSEQRPRIQELGDLYTPAPGRAESGPEKPHLNLWLEAPDLLLAEIDLPKLDGALGLSLEIGENRLVMGGPQQLYHLDAYIPLQINSHESKAAFHRKRKQLMVAMPLLLVPS	not soluble
MGHHHHHHSHMANSMANSMGITTLDDPLGHMPERFDAFICYCPSDIQFVQEMIRQLEQTNYRLKLCVSDRDVLPGTCVWSIASELIEKRCRRMVVVVSDDYLQSKECDFQTKFALSLSPGAHQKRLIPIKYKAMKKEFPSILRFITVCDYTNPCTKSWFWTRLAKALSLP	soluble
MGHHHHHHSHMANSMANSMIRNKVMEQSFIEYSLGKDASSAVLWVYPARKPRGKAIIMCPGGGFNQIASDHEGRDFAAWFNNQGITYAVLNYRMPHGDVEVIREDIREAIRLIRRQSAEWGIHQLGVMGASIGGYIAATAATLYTGTDRPDFQVLLYPVISMTDRLTHWPSRERMLGETISEGLKETLSLELHVTADTPPTFIVLAEDDQAVSPLNSIVYYTALLKHGVSAGLHIYPEGGHSFGFRDSFIYKELWTDELQKWLLTF	soluble
MGHHHHHHSHMARPWTEDGDWTEPGAPGGTEDRPSGGGKANRAHPIKQRPFPYEHKNTWSAQNCKNGSCVLDLSKCLFIQGKLLFAEPKDAGFPFSQDINSHLASLSMARNTSPTPDPTVREALCAPDNLNASIESQGQIKMYINEVCRETVSRCCNSFLQQAGLNLLISMTVINNMLAKSASDLKFPLISEGSGCAKVQVLKPLMGLSEKPVLAGELVGAQMLFSFMSLFIRNGNREILLETPAP	not soluble
MGHHHHHHSHMASRVRVTILFATETGKSEALAWDLGALFSCAFNPKVVCMDKYRLSCLEEERLLLVVTSTFGNGDCPGNGEKLKKSLFMLKELNNKFRYAVFGLGSSMYPRFCAFAHDIDQKLSHLGASQLTPMGEGDELSGQEDAFRSWAVQTFKAACETF	not soluble
MGHHHHHHSHMCPRCGKQFNHSSNLNRHMNVHRGVKSHSCGICGKCFTQKSTLHDHLNLHSGARPYRCSYCD	soluble
MGHHHHHHSHMDADSASQRLVISAPDSQVRFSNIRTNDVAKTPQMHGTEMANSPQPPPLSPHPCDVVDEGVTKTPSTPQSQHFYQMPTPDPLVPSKPMEDRIDSLSQSFPPQYQEAVEPTVYVGTAVNLEEDEANIAWKYYKFPKKKDVEFLPPQLPSDKFKDDPVGPFGQESVTSVTEYVFFLIVTIII	not soluble
MGHHHHHHSHMDNAVDRHVFYISDGTAITAEVLGHAVMSQFPVTISSITLPFVENESRARAVKDQIDAIYHQTGVRPLVFYSIVLPEIRAIILQSEGFCQDIVQALVAPLQQEMKLDPTPIAHRTHGLNPNNLNKYDARIAAIDYTLAHDDGISLRNLDQAQVILLGVSRCGKTPTSLYLAMQFGIRAANYPFIADDMDNLVLPASLKPLQHKLFGLTIDPERLAAIREERRENSRYASLRQCRMEVAEVEALYRKNQIPWINSTNYSVEEIATKILDIMGLSRRMY	not soluble
MGHHHHHHSHMDVVDPDIFNRDPRDHYDLLQRLGGGTYGEVFKARDKVSGDLVALKMVKMEPDDDVSTLQKEILILKTCRHANIVAYHGSYLWLQKLWICMEFCGAGSLQDIYQVTGSLSELQISYVCREVLQGLAYLHSQKKIHRDIKGANILINDAGEVRLADFGISAQIGATLARRLSFIGTPYWMAPEVAAVALKGGYNELCDIWSLGITAIELAELQPPLFDVHPLRVLFLMTKSGYQPPRLKEKGKWSAAFHNFIKVTLTKSPKKRPSATKMLSHQLVSQPGLNRGLILDLLDKLKNPGKGPSIGDIEDEEPELPPAIPRRIRSTHRSSSLGIPDADCCRRHMEFRKLRGMETRPPANTARLQPPRDLRSSSPRKQLSES	soluble
MGHHHHHHSHMEGSETGSREGSDVACTEGICNHDEHGDDSCVHHCEDKEDDGDSCVECWANSEENDTKGKNKKKKKKSKILKCDEHIQKLGSCITDPGNRETSGNTMHTVFHRDKTKDTHPESCCSSEKGGQPLPWFEHRKNVPQFAEPTETLFGPDSGKGAKSLVELLDESECTSDEEIFISQDEIQSFMANNQSFYSNREQYRQHLKEKFNKYCRLNDHKRPICSGWLTTAGAN	not soluble
MGHHHHHHSHMGFGSDLKNSHEAVLKLQDWELRLLETVKKFMALRIKSDKEYASTLQNLCNQVDKESTVQMNYVSNVSKSWLLMIQQTEQLSRIMKTHAEDLNSGPLHRLTMMIKDKQQVKKSYIGVHQQIEAEMIKVTKTELEKLKCSYRQLIKEMNSAKEKYKEALAKG	soluble
MGHHHHHHSHMGIKYHEESIHAAYVHVIENSRHYIYIENQFFISCADDKVVFNKIGDAIAQRILKAHRENQKYRVYVVIPLLPGFEGDISTGGGNALQAIMHFNYRTMCRGENSILGQLKAELGNQWINYISFCGLRTHAE	soluble
MGHHHHHHSHMGKGTFVYRTTITSPHEEVWAFFSSPTNLQTLTKIPKVVLDSTSETTQGSEIEMKLFVLGIPFQWKAYIEAYNPPFSFTDVAIKMPFPIVYWRHTHRFTTEGERTVMIDEIQYEIKMANKLVIFFLRRMFRARESALHRYFQS	soluble
MGHHHHHHSHMHGECVKEEKDFLKKEIVDDTKVKEEPPINHPVGCKRKLAMSRCETCGTEEAKYRCPRCMRYSCSLPCVKKHKAELTCNGVRDKTAYISIQQFTEMNLLSDYRFLEDVARTADHISRDAFLKRPISNKYMYFMKNRARRQGINLKLLPNGFTKRKENSTFFDKKKQQFCWHVKLQFPQSQAEYIEKRVPDDKTINEILKPYIDPEKSDPVIRQRLKAYIRSQTGVQILMKIEYMQQNLVRYYELDPYKSLLDNLRNKVIIEYPTLHVVLKGSNNDMKVLHQVKSESTKNVGNEN	not soluble
MGHHHHHHSHMIKQRTLKRIVQATGVGLHTGKKVTLTLRPAPANTGVIYRRTDLNPPVDFPADAKSVRDTMLCTCLVNEHDVRISTVEHLNAALAGLGIDNIVIEVNAPEIPIMDGSAAPFVYLLLDAGIDELNCAKKFVRIKETVRVEDGDKWAEFKPYNGFSLDFTIDFNHPAIDSSNQRYAMNFSADAFMRQISRARTFGFMRDIEYLQSRGLCLGGSFDCAIVVDDYRVLNEDGLRFEDEFVRHKMLDAIGDLFMCGHNIIGAFTAYKSGHALNNKLLQAVLAKQEAWEYVTFQDDAELPLAFKAPSAVLA	not soluble
MGHHHHHHSHMKDLTDMDKNSPEAWCAAGNCFSLQREHDIAIKFFQRAIQVDPNYAYAYTLLGHEFVLTEELDKALACFRNAIRVNPRHYNAWYGLGMIYYKQEKFSLAEMHFQKALDINPQSSVLLCH	not soluble
MGHHHHHHSHMKTLEAHKDPHKEVVRSAEEAASVLATSISPEQCIKVLCPIIQTADYPINLAAIKMQTKVIERVSKETLNLLLPEIMPGLIQGYDNSESSVRKACVFCLVAVHAVIGDELKPHLSQLTGSKMKLLNLYIKRAQTGSGGADPTTDVSGQS	not soluble
MGHHHHHHSHMLRGMARMGGQRRLKALAAPRFWPILRKEYKWAVKPRPGPHPAEKSLPLLLIVRNVLGYAQTAREARKLISEGHFRVDGVVRKDYKFPVGFMDVIEVVDTGEKFRMLPYPVKFFKLHPIPEEEGDLKPVRIENKTTVKGGHVQLNLHDGRNILVRVKDPRNPVEDVYRTMDTLLITVPGQEIKGHIKFGEGAIAIIVGGRNVGRVGVVKSVQKGWGRKRTLVTLEDASGNLFQTSLDYVFVIGLDRPVISLPEGAWK	soluble
MGHHHHHHSHMNDSDSTPPKKKMRKTENGMYACDLCDKIFQKSSSLLRHKYEHTGKRPHECGICKKAFKHKHHLIEHMRLHSGEKPYQCDKCGKRFSHSGSYSQHMNHRYSYCKREAEERDSTEQEEAGPEILSNEHVGARASP	soluble
MGHHHHHHSHMNNQKVVAVLLQECRALLPSELRTLIQEAKEMKWPFVPEKWQYKQAVGPEDKTNLKDVIGAGLQQLLASLRASILARDCAAAAAIVFLVDRFLYGLDVSGKLLQVAKGLHKLQPATPIAPQVVIRQARISVNSGSHPAKHSM	not soluble

— the DeepSol protein solubility set
